According to PMC2831328:

Target: HCV NS3 helicase (WT) (Hepatitis C virus (subgenomic replicon …, UniProt Q9WMX2 1027-1657))
Assay: competition

HCV NS3 helicase (WT) (Hepatitis C virus, sequence (Q9WMX2 1027-1657): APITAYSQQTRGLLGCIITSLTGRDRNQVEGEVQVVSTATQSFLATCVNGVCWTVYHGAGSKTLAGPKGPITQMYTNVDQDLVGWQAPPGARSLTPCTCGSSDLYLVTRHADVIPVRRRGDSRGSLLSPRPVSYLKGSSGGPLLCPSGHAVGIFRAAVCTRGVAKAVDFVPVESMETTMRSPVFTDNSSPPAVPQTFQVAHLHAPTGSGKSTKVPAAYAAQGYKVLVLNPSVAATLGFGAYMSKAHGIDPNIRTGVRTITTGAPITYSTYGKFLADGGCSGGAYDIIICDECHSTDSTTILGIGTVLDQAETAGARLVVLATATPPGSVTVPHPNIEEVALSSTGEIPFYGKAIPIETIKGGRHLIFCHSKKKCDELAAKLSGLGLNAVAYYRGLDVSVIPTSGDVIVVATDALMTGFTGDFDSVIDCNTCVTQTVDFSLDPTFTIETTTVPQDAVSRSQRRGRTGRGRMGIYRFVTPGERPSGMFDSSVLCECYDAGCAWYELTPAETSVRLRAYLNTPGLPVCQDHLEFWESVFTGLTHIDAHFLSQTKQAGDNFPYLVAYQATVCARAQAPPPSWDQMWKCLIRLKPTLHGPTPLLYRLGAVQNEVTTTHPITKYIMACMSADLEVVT

B1: ds9 (competitor duplex) (dsRNA)
RNA 1: GCCGCCCGG
RNA 2: CCGGGCGGC
Ki: 90 ± 20 nM
